The test addresses T1, GST-LjBAK1cyt (Lotus japonicus, UniProt A0A2H4NR37).
T1 chain: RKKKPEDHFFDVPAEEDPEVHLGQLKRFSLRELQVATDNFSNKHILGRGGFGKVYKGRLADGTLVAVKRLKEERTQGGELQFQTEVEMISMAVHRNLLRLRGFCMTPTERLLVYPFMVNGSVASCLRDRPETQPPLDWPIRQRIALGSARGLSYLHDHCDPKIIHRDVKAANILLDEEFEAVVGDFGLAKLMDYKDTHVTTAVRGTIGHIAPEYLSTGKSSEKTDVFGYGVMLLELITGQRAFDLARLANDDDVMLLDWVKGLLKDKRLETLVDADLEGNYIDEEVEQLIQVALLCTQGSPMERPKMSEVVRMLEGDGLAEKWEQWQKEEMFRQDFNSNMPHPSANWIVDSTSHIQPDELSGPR
Kind of test: GST pull-down.

B1: HIS-NFR5cyt (protein)
chain: RRKKALNRTASSAETADKLLSGVSGYVSKPNVYEIDEIMEATKDFSDECKVGESVYKANIEGRVVAVKKIKEGGANEELKILQKVNHGNLVKLMGVSSGYDGNCFLVYEYAENGSLAEWLFSKSSGTPNSLTWSQRISIAVDVAVGLQYMHEHTYPRIIHRDITTSNILLDSNFKAKIANFAMARTSTNPMMPKIDVFAFGVLLIELLTGRKAMTTKENGEVVMLWKDMWEIFDIEENREERIRKWMDPNLESFYHIDNALSLASLAVNCTADKSLSRPSMAEIVLSLSFLTQQSSNPTLERSLTSSGLDVEDDAHIVTSITAR
For B1, the binding result is given as “binds”.
